3 substances from article PMC6460258 can be followed below.

For assay [1], the target named is GST-tagged Lcl (recombinant full length Lcl, 18 repeats) (Legionella pneumophila). As to the kind of experiment: SPR; Biacore X100; […] (100 nM) […]. For orientation: SPR reads the build-up and loss of mass on a sensor chip optically.
The target in assay [2] is His-tagged full length Lcl (Legionella collagen-like protein) with 18 repeats (Legionella pneumophila serogroup 1, strain LU1536). The experiment in a line: SEC; […], PBS, 0.5 ml/min; […].

Regarding “His-tagged full length Lcl (Legionella collagen-like protein) with 18 repeats (natural protein)”, in assay [1], the Kd worked out at 28.7 nM. The same substance showed a stoichiometry N in assay [2] of 3.
Consider “His-tagged Lcl lacking the collagenous repeat domain (Lcl[change]) (domain or fragment)”, for which the Kd in assay [1] turned out to be 1040 nM.
Still for that read-out and setting: to “His-tagged Lcl lacking the C-terminal domain (Lcl[change]) (domain or fragment)” belongs 123 nM.

The term Kd denotes a measure of binding affinity in units of concentration. As a reminder, the stoichiometry N is a count of units in the complex or per binding partner.
